In assay [1] the target is T1, PD-1 shown on cells (Raji-PD-1 cells); CD3/CD28 activated human CD8+ T cells; PD-1 effector cells of the … (human, UniProt Q15116 25-288).
T1 construct: whole, on cells; Human is stated for the PBMCs; also called hPD-1; PD1 expressing Raji cells
In words: flow cytometry on CD3+CD8+ T cells within CD3/CD28 activated human PBMCs, 1 h at 4 C, anti-human IgG PE, % anti-hIgG+; table CD8+ T cells under the graph. The method, then: Mixed donor lots of human peripheral blood mononuclear cells (PBMCs) were thawed and seeded in medium (RPMI1640, 10% fetal bovine serum (FBS), 2 mM 1-Glutamine, 50 U/mL penicillin, 50 μg/mL streptomycin, 1 μM each of non-essential amino acids, 10 mM HEPES, 1 mM sodium pyruvate, 55 μM B-mercaptoethanol, 10 μg/mL gentamycin) into tissue culture treated plates that were coated for 1 h at 37° C. with 1 μg/ml anti-CD3. Anti-CD28 was added in solution at a concentration of 5 μg/ml. Two days later the PBMCs were collected and transferred into a 96 well v-bottom plate at 100,000 cells per well in FACS Buffer (2% FBS in phosphate buffered saline (PBS)). Test articles were diluted to twice the indicated concentration in FACS buffer. Test articles were added to cells at a 1:1 ratio to the final concentration indicated in the figure and incubated for 1 h at 4° C. The cells were washed three times with FACS buffer and fixed in 4% PFA. Cells were then washed once in FACS buffer. All cells were stained in 100 μL of indicated molecules in FACS buffer for 1 h at 4° C. The cells were washed three times with FACS buffer and fixed in 4% paraformaldehyde (PFA). All cells were subsequently stained in 100 μL with anti-human IgG PE, anti-CD3 PE/Dazzle 594, anti-CD45 PerCP Cy5.5, anti-CD8 BV510, and anti-CD4 BV421 for 30 minutes. Cells were washed twice to remove unbound antibody and analyzed on the BD Celesta by gating on CD3+CD8+ T cells.
For orientation: A flow cytometer gives signals particle by particle.

Assay [2] deals with PD-1 (antigen of the ELISA and of the in vitro affinity measurement) (UniProt Q15116 25-167, limits assumed). In words: kinetic binding table: TC3 captured as ligand (capture level 78.1 RU), hPD1-his as sample; method not given.
PD-1 (antigen of the ELISA and of the in vitro affinity measurement), sequence (Q15116 25-167 limits assumed): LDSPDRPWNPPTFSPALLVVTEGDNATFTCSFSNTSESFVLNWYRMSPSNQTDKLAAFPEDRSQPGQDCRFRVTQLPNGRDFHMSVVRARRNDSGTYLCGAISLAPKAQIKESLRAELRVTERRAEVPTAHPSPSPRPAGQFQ

A word on the EC50: it is the concentration that produces a half-maximal response. Low readings indicate greater potency, high ones weaker potency. What is called Kd is the concentration at which binding is half-saturated. Low readings indicate a tighter complex, high ones a looser complex. A word on the koff: it is the first-order rate constant of dissociation. A word on the kon: it is the rate constant with which the complex forms.

T1 sequence (Q15116 25-288): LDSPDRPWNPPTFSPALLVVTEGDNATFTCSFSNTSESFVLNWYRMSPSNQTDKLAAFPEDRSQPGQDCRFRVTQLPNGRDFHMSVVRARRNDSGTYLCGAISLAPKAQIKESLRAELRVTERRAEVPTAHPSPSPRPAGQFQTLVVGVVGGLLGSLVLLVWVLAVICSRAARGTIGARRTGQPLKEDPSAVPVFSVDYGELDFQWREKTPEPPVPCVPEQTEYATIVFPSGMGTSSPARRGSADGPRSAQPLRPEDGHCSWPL

B1: TC3 (Fc fusion)
heavy 1: QVQLVQSGVEVKKPGASVKVSCKASGYTFTNYYMYWVRQAPGQGLEWMGGINPSNGGTNFNEKFKNRVTLTTDSSTTTAYMELKSLQFDDTAVYYCARRDYRFDMGFDYWGQGTTVTVSSASTKGPSVFPLAPSSKSTSGGTAALGCLVKDYFPEPVTVSWNSGALTSGVHTFPAVLQSSGLYSLSSVVTVPSSSLGTQTYICNVNHKPSNTKVDKKVEPKSCDKTHTCPPCPAPELLGGPSVFLFPPKPKDTLMISRTPEVTCVVVDVSHEDPEVKFNWYVDGVEVHNAKTKPREEQYASTYRVVSVLTVLHQDWLNGKEYKCKVSNKALPAPIEKTISKAKGQPREPQVYTLPPCRDELTKNQVSLWCLVKGFYPSDIAVEWESNGQPENNYKTTPPVLDSDGSFFLYSKLTVDKSRWQQGNVFSCSVMHEALHNRFTQKSLSLSPGGGSSPPGGGSSGGGSGPAPTSSSTKKTQLQLEHLLLDLQMILNGINNYKNPKLTAMLTAKFAMPKKATELKHLQCLEEALKPLEEVLNLAQSKNFHLRPRDLISNINVIVLELKGSETTFMCEYADETATIVEFLNRWITFAQSIISTLT
heavy 2: QVQLVQSGVEVKKPGASVKVSCKASGYTFTNYYMYWVRQAPGQGLEWMGGINPSNGGTNFNEKFKNRVTLTTDSSTTTAYMELKSLQFDDTAVYYCARRDYRFDMGFDYWGQGTTVTVSSASTKGPSVFPLAPSSKSTSGGTAALGCLVKDYFPEPVTVSWNSGALTSGVHTFPAVLQSSGLYSLSSVVTVPSSSLGTQTYICNVNHKPSNTKVDKKVEPKSCDKTHTCPPCPAPELLGGPSVFLFPPKPKDTLMISRTPEVTCVVVDVSHEDPEVKFNWYVDGVEVHNAKTKPREEQYASTYRVVSVLTVLHQDWLNGKEYKCKVSNKALPAPIEKTISKAKGQPREPQVCTLPPSRDELTKNQVSLSCAVKGFYPSDIAVEWESNGQPENNYKTTPPVLDSDGSFFLVSKLTVDKSRWQQGNVFSCSVMHEALHNHYTQKSLSLSPGGPPSGSSPMPYDLYHPSGGGAVNGTSQFTCFYNSRANISCVWSQDGALQDTSCQVHAWPDRRRWNQTCELLPVSQASWACNLILGAPDSQKLTTVDIVTLRVLCREGVRWRVMAIQDFKPFENLRLMAPISLQVVHVETHRSNISWEISQASHYFERHLEFEARTLSPGHTWEEAPLLTLKQKQEWISLETLTPDTQYEFQVRVKPLQGEFTTWSPWSQPLAFRTKPAALGKD
light: EIVLTQSPATLSLSPGERATLSCRASKGVSTSGYSYLHWYQQKPGQAPRLLIYLASYLESGVPARFSGSGSGTDFTLTISSLEPEDFAVYYCQHSRDLPLTFGGGTKVEIKRTVAAPSVFIFPPSDEQLKSGTASVVCLLNNFYPREAKVQWKVDNALQSGNSQESVTEQDSKDSTYSLSSTLTLSKADYEKHKVYACEVTHQGLSSPVTKSFNRGEC
notes: Bivalent anti-PD-1 Fab
With B1, it took 0.1 nM to reach a half-maximal effect in assay [1] (EC50). Further, in assay [2], the Kd amounted to 7.11 nM, the off-rate constant (koff) stood at 0.00328 s⁻¹ and the association rate constant (kon) was 461000 M⁻¹ s⁻¹.

B2: TC24 (Fc fusion)
heavy 1: QVQLVQSGVEVKKPGASVKVSCKASGYTFTNYYMYWVRQAPGQGLEWMGGINPSNGGTNFNEKFKNRVTLTTDSSTTTAYMELKSLQFDDTAVYYCARRDYRFDMGFDYWGQGTTVTVSSASTKGPSVFPLAPSSKSTSGGTAALGCLVKDYFPEPVTVSWNSGALTSGVHTFPAVLQSSGLYSLSSVVTVPSSSLGTQTYICNVNHKPSNTKVDKKVEPKSCDKTHTCPPCPAPELLGGPSVFLFPPKPKDTLMISRTPEVTCVVVDVSHEDPEVKFNWYVDGVEVHNAKTKPREEQYASTYRVVSVLTVLHQDWLNGKEYKCKVSNKALPAPIEKTISKAKGQPREPQVYTLPPCRDELTKNQVSLWCLVKGFYPSDIAVEWESNGQPENNYKTTPPVLDSDGSFFLYSKLTVDKSRWQQGNVFSCSVMHEALHNRFTQKSLSLSPGGGSSPPGGGSSGGGSGPAPTSSSTKKTQLQLEHLLLDLQMILNGINNYKNPKLTAMLTAKFAMPKKATELKHLQCLEEALKPLEEVLNLAQSKNFHLRPRDLISNINVIVLELKGSETTFMCEYADETATIVEFLNRWITFAQSIISTLT
heavy 2: QVQLVQSGVEVKKPGASVKVSCKASGYTFTNYYMYWVRQAPGQGLEWMGGINPSNGGTNFNEKFKNRVTLTTDSSTTTAYMELKSLQFDDTAVYYCARRDYRFDMGFDYWGQGTTVTVSSASTKGPSVFPLAPSSKSTSGGTAALGCLVKDYFPEPVTVSWNSGALTSGVHTFPAVLQSSGLYSLSSVVTVPSSSLGTQTYICNVNHKPSNTKVDKKVEPKSCDKTHTCPPCPAPELLGGPSVFLFPPKPKDTLMISRTPEVTCVVVDVSHEDPEVKFNWYVDGVEVHNAKTKPREEQYASTYRVVSVLTVLHQDWLNGKEYKCKVSNKALPAPIEKTISKAKGQPREPQVCTLPPSRDELTKNQVSLSCAVKGFYPSDIAVEWESNGQPENNYKTTPPVLDSDGSFFLVSKLTVDKSRWQQGNVFSCSVMHEALHNHYTQKSLSLSPGGGSSGPVPLSLYSGSGGGAVNGTSQFTCFYNSRANISCVWSQDGALQDTSCQVHAWPDRRRWNQTCELLPVSQASWACNLILGAPDSQKLTTVDIVTLRVLCREGVRWRVMAIQDFKPFENLRLMAPISLQVVHVETHRSNISWEISQASHYFERHLEFEARTLSPGHTWEEAPLLTLKQKQEWISLETLTPDTQYEFQVRVKPLQGEFTTWSPWSQPLAFRTKPAALGKD
light: EIVLTQSPATLSLSPGERATLSCRASKGVSTSGYSYLHWYQQKPGQAPRLLIYLASYLESGVPARFSGSGSGTDFTLTISSLEPEDFAVYYCQHSRDLPLTFGGGTKVEIKRTVAAPSVFIFPPSDEQLKSGTASVVCLLNNFYPREAKVQWKVDNALQSGNSQESVTEQDSKDSTYSLSSTLTLSKADYEKHKVYACEVTHQGLSSPVTKSFNRGEC
notes: Mask CD122 (C122S, C168S)
On to B2, for which it took 0.1 nM to reach a half-maximal effect in assay [1] (EC50).

B3: TC47 (Fc fusion)
heavy 1: QVQLVQSGVEVKKPGASVKVSCKASGYTFTNYYMYWVRQAPGQGLEWMGGINPSNGGTNFNEKFKNRVTLTTDSSTTTAYMELKSLQFDDTAVYYCARRDYRFDMGFDYWGQGTTVTVSSASTKGPSVFPLAPSSKSTSGGTAALGCLVKDYFPEPVTVSWNSGALTSGVHTFPAVLQSSGLYSLSSVVTVPSSSLGTQTYICNVNHKPSNTKVDKKVEPKSCDKTHTCPPCPAPELLGGPSVFLFPPKPKDTLMISRTPEVTCVVVDVSHEDPEVKFNWYVDGVEVHNAKTKPREEQYASTYRVVSVLTVLHQDWLNGKEYKCKVSNKALPAPIEKTISKAKGQPREPQVYTLPPCRDELTKNQVSLWCLVKGFYPSDIAVEWESNGQPENNYKTTPPVLDSDGSFFLYSKLTVDKSRWQQGNVFSCSVMHEALHNRFTQKSLSLSPGGGSSPPGGGSSGGGSGPAPTSSSTKKTQLQLEHLLLDLQMILNGINNYKNPKLTAMLTAKFAMPKKATELKHLQCLEEALKPLEEVLNLAQSKNFHLRPRDLISNINVIVLELKGSETTFMCEYADETATIVEFLNRWITFAQSIISTLT
heavy 2: QVQLVQSGVEVKKPGASVKVSCKASGYTFTNYYMYWVRQAPGQGLEWMGGINPSNGGTNFNEKFKNRVTLTTDSSTTTAYMELKSLQFDDTAVYYCARRDYRFDMGFDYWGQGTTVTVSSASTKGPSVFPLAPSSKSTSGGTAALGCLVKDYFPEPVTVSWNSGALTSGVHTFPAVLQSSGLYSLSSVVTVPSSSLGTQTYICNVNHKPSNTKVDKKVEPKSCDKTHTCPPCPAPELLGGPSVFLFPPKPKDTLMISRTPEVTCVVVDVSHEDPEVKFNWYVDGVEVHNAKTKPREEQYASTYRVVSVLTVLHQDWLNGKEYKCKVSNKALPAPIEKTISKAKGQPREPQVCTLPPSRDELTKNQVSLSCAVKGFYPSDIAVEWESNGQPENNYKTTPPVLDSDGSFFLVSKLTVDKSRWQQGNVFSCSVMHEALHNHYTQKSLSLSPGGGSSGPVPLSLYSGSGGGAVNGTSQFTCFYNSRANISCVWSQDGALQDTSCQVHAWPDRRRWNQTCELLPVSQASWACNLILGAPDSQKLTTVDIVTLRVLCREGVRWRVMAIQDFKPFENLRLMAPISLQVVHVETHRACISWEISQASHYFERHLEFEARTLSPGHTWEEAPLLTLKQKQEWICLETLTPDTQYEFQVRVKPLQGEFTTWSPWSQPLAFRTKPAALGKD
light: EIVLTQSPATLSLSPGERATLSCRASKGVSTSGYSYLHWYQQKPGQAPRLLIYLASYLESGVPARFSGSGSGTDFTLTISSLEPEDFAVYYCQHSRDLPLTFGGGTKVEIKRTVAAPSVFIFPPSDEQLKSGTASVVCLLNNFYPREAKVQWKVDNALQSGNSQESVTEQDSKDSTYSLSSTLTLSKADYEKHKVYACEVTHQGLSSPVTKSFNRGEC
notes: Mask CD122 (C122A, N123C)
Molecule B3 came in with an EC50 in assay [1] of 0.1 nM.
